Measured values published in article PMC11427689, “Antagonistic nanobodies implicate mechanism of GSDMD pore formation and potential therapeutic application” (Nature Communications, 2024).

How the values were obtained:
[1] = target: T1, His-SUMO-GSDMD (Homo sapiens, UniProt P57764); experiment: ELISA; SUMO-GSDMD or SUMO in PBS immobilised on ELISA plates at 1 μg/mL overnight; HA-tagged nanobodies in 10% FBS/PBS, 10-fold dilution series from 100 nM to 1 pM; detected with anti-HA HRP and TMB; conditions: both partners purified
T1 construct: human gasdermin D (GSDMD), expressed from pET28 as His-SUMO-GSDMD; the recombinant protein is called full-length in the results; it was cleavable with the SUMO protease ULP1; also called gasdermin D; source: E. coli LOBSTR, purified (Ni-NTA, gel filtration); not shown: SUMO, N-terminal, kept
T1 sequence (P57764 whole entry): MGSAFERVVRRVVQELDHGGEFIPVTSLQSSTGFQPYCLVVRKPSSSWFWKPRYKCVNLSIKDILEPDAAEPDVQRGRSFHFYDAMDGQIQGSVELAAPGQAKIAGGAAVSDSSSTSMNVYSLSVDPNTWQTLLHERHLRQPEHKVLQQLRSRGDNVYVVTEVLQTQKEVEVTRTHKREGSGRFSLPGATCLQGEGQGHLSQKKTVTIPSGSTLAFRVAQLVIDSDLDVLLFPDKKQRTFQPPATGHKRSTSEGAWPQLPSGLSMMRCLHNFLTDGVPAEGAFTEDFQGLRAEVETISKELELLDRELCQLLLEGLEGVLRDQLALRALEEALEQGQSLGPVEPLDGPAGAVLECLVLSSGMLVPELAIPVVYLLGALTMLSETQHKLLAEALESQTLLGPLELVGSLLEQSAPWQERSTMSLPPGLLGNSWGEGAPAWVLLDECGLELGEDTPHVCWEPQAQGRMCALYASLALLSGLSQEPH

[2] = target: T2, human GSDMD-Renilla luciferase fusion (Homo sapiens, UniProt P57764); experiment: co-IP; LUMIER assay: HEK293T co-transfected with VHH-HA and Renilla luciferase fusions; lysis in 50 mM Hepes-KOH pH 7.9, 150 mM NaCl, 2 mM EDTA, 0.5% Triton X-100, 5% glycerol; VHH-HA captured on anti-HA-coated plates for one hour; luminescence of co-purified Renilla luciferase normalised to lysate; conditions: partners not purified
T2 construct: human gasdermin D (GSDMD) fused to Renilla luciferase; A GSDMD 4 A fusion was tested as well; also called Renilla-fused bait protein human GSDMD; source: HEK293T, transfected (pcDNA3.1-based vector), in lysate
T2 sequence (P57764 whole entry, the tested form may be a part): as the sequence (P57764 whole entry) above

[3] = target: T3, GSDMD^NT (N-terminal domain of gasdermin D released by caspase cleavage) (Homo sapiens (endogenous, THP-1), UniProt P57764); experiment: non-reducing SDS-PAGE and immunoblot; PMA-differentiated THP-1 macrophages expressing HA-tagged nanobodies, stimulated with MxiH for 1 h; lysates in SDS-PAGE buffer without reducing agent; immunoblot with anti-GSDMD; conditions: partners not purified
T3 construct: also called processed GSDMD^NT; source: endogenous, lysate of PMA-differentiated THP-1 macrophages stimulated with MxiH
T3 sequence (P57764 whole entry, looked up, the tested form may be a part): as the sequence (P57764 whole entry) above

B1: VHH_(GSDMD-1) with C-terminal HA-His6 (VHH)
VHH: QVQLVESGGALVQPGGSLRLSCSASGFTFSKYLMSWYRQAPGKERELVATITTAGGNTNYADSVKGRFTISRDNAKNTVYLQMNSLKPEDTAVYYCKASGGTIRTVNETYWGQGTQVTVSS
notes: pHEN6-based periplasmic expression vector, small scale (HA-His6); also called HA-His-tagged nanobody; source: E. coli WK6, periplasmic extract, purified (Ni-NTA, desalting); not shown: HA, C-terminal, kept; His6, C-terminal, kept
- binding result [1]: binds

B2: VHH_(GSDMD-5)-HA (VHH)
VHH: QVQLVETGGGLVQPGGSLRLSCAASGFVFSINPMNWYRQAPGKERELVAYISMRGSTTNYADSVKGRFIISRDNAKNTLYLQMNSLKPEDTAVYYCNAPSRSVWGQGTQVTVSS
notes: also called VHH-HA; source: HEK293T, transfected (pCAGGS VHH-HA), in lysate; not shown: HA, C-terminal, kept
- binding result [2]: binds

B3: VHH_(GSDMD-1) with a C-terminal HA tag, expressed in THP-1 cells (VHH)
VHH: QVQLVESGGALVQPGGSLRLSCSASGFTFSKYLMSWYRQAPGKERELVATITTAGGNTNYADSVKGRFTISRDNAKNTVYLQMNSLKPEDTAVYYCKASGGTIRTVNETYWGQGTQVTVSS
notes: Same nanobody as m2 and m11, other vector and host; also called VHH_(GSDMD-1)-HA; source: THP-1, lentiviral transduction, constitutive expression (pEF1α), in lysate; not shown: HA, C-terminal, kept
- binding result [3]: binds

B4: VHH_(GSDMD-2) with a C-terminal HA tag, expressed in THP-1 cells (VHH)
VHH: QVQLVESGGGLVQPGGSLRLSCVDSRSWINVYGANWYRQAPGKERELVAALTSGGTTNYADSVKGRFTISRDNAKNTVYLQMRDLKPEDTAVYYCNLERYTGSSVYPWGQGTQVTVSS
notes: Same nanobody as m3 and m12, other vector and host; also called VHH_(GSDMD-2)-HA; source: THP-1, lentiviral transduction, constitutive expression (pEF1α), in lysate; not shown: HA, C-terminal, kept
- binding result [3]: binds

B5: VHH_(GSDMD-2) with C-terminal HA-His6 (VHH)
VHH: QVQLVESGGGLVQPGGSLRLSCVDSRSWINVYGANWYRQAPGKERELVAALTSGGTTNYADSVKGRFTISRDNAKNTVYLQMRDLKPEDTAVYYCNLERYTGSSVYPWGQGTQVTVSS
notes: as for B1
- binding result [1]: binds

B6: VHH_(GSDMD-3) with C-terminal HA-His6 (VHH)
VHH: QVQLVETGGGLVQPGGSLRLSCAASGFTLDIYNMGWFRQAPGKEREGVSCISSRYGTSTYYADSVKGRFTISRDNAKNTVYLQMNNLKPEDTAVYYCATVSWRFTTNQDVCLTPSVSGYWGQGTQVTVSS
notes: as for B1
- binding result [1]: binds

B7: VHH_(GSDMD-4) with C-terminal HA-His6 (VHH)
VHH: QVQLVESGGGLVQPGGSLRLSCAASGFTLDRHAIAWFRQAPGLEREGVVCTSSSGAITNTADSVKGRFTISRDDAKNTVYLQMNSLKPEDTAIYYCAVRELWTVQPICEPRPRAYAYWGQGTQVTVSS
notes: as for B1
- binding result [1]: binds

B8: VHH_(GSDMD-5) with C-terminal HA-His6 (VHH)
VHH: QVQLVETGGGLVQPGGSLRLSCAASGFVFSINPMNWYRQAPGKERELVAYISMRGSTTNYADSVKGRFIISRDNAKNTLYLQMNSLKPEDTAVYYCNAPSRSVWGQGTQVTVSS
notes: as for B1
- binding result [1]: binds

B9: VHH_(GSDMD-6) with C-terminal HA-His6 (VHH)
VHH: QVQLVETGGGLVQPGGSLRLSCTASGFIFSANQMNWVRQAPGKGLEWLSGISTRGDTTSYADSVKGRFTISRDNAKNTLYLQMNSLQPDDTAVYFCARVCIRGPEPKLRCDDWGQGTQVTVSS
notes: as for B1
- binding result [1]: binds

B10: VHH_(GSDMD-1)-HA (VHH)
VHH: QVQLVESGGALVQPGGSLRLSCSASGFTFSKYLMSWYRQAPGKERELVATITTAGGNTNYADSVKGRFTISRDNAKNTVYLQMNSLKPEDTAVYYCKASGGTIRTVNETYWGQGTQVTVSS
notes: as for B2
- binding result [2]: binds

B11: VHH_(GSDMD-2)-HA (VHH)
VHH: QVQLVESGGGLVQPGGSLRLSCVDSRSWINVYGANWYRQAPGKERELVAALTSGGTTNYADSVKGRFTISRDNAKNTVYLQMRDLKPEDTAVYYCNLERYTGSSVYPWGQGTQVTVSS
notes: as for B2
- binding result [2]: binds

B12: VHH_(GSDMD-3)-HA (VHH)
VHH: QVQLVETGGGLVQPGGSLRLSCAASGFTLDIYNMGWFRQAPGKEREGVSCISSRYGTSTYYADSVKGRFTISRDNAKNTVYLQMNNLKPEDTAVYYCATVSWRFTTNQDVCLTPSVSGYWGQGTQVTVSS
notes: as for B2
- binding result [2]: binds
